Reference: the supplement of paper PMC7125110
± gives the standard error. Variants at the floor of the assay were thinned out.

B1: glmS ribozyme (parent)
chain: AUAAAAGCGCCAGAACUACAGAAAUGUAGUUGACGAGGAGGAGGUUUAUCGAAUUUUCGGCGGAUGCCUCCAAA

Experiments:
Details in all cases: with glucosamine-6-phosphate
glucosamine-6-phosphate [1] = variants of: B1; experiment: self-cleavage kobs at 640 uM GlcN6P; higher = faster cleavage; RNA array
Outline: (§1)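 Glucosamine-6-phosphate, from 40 μM to 10 mM in HEPES/KCl/Mg(OAc)2 buffer, was flowed over sequenced MiSeq chips carrying barcoded ribozyme variants transcribed in situ by E. coli RNA polymerase. A hybridised Cy3 probe tracked the variants at 37 °C as tiles were imaged over ~14 h. kobs, kcat and KM were obtained by fitting normalised per-tile medians to exponential decays and then applying weighted Michaelis–Menten fits across concentrations.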

glucosamine-6-phosphate [2] = variants of: B1; experiment: self-cleavage kobs at 2500 uM GlcN6P; higher = faster cleavage; RNA array
Outline: as §1

glucosamine-6-phosphate [3] = variants of: B1; experiment: self-cleavage kobs at 10000 uM GlcN6P; higher = faster cleavage; RNA array
Outline: as §1

Row | Variant | self-cleavage kobs at 640 uM GlcN6P (glucosamine-6-phosphate [1]) [s⁻¹] | self-cleavage kobs at 2500 uM GlcN6P (glucosamine-6-phosphate [2]) [s⁻¹] | self-cleavage kobs at 10000 uM GlcN6P (glucosamine-6-phosphate [3]) [s⁻¹]
1 | G40U C61G U65G | < 1e-05 | < 1e-05 | –
2 | G41A U65C | < 1e-05 | – | –
3 | G37C A52C | < 1e-05 | < 1e-05 | < 1e-05
4 | C34U A36G G44A C58A C68U | < 1e-05 | < 1e-05 | –
5 | A39U U46A | 0.000305 ± 7.5e-05 | 0.000711 ± 0.00023 | 0.00219 ± 0.00035
6 | G35C G59U C61A | < 1e-05 | – | –
7 | G40C U54C U56A | 0.000313 ± 5.9e-05 | 0.000505 ± 0.00011 | –
8 | C34U G38U G43C | < 1e-05 | – | –
9 | G38U U57A C71G | < 1e-05 | < 1e-05 | –
10 | G37U A39U A52C G59A | < 1e-05 | – | –
11 | G35A U46G C61G | < 1e-05 | < 1e-05 | < 1e-05
12 | A33C U47C U65G | < 1e-05 | < 1e-05 | –
13 | A39U U56A U65G | 0.000165 ± 4.5e-05 | – | 0.00113 ± 0.00025
14 | A36U C61G C70A | 0.000101 ± 3e-05 | – | –
15 | U45C A48U G60A | < 1e-05 | < 1e-05 | –
16 | G40C U47C C68G | < 1e-05 | – | –
17 | G44A C50U C67U | < 1e-05 | – | –
18 | G44U G62U C68A | < 1e-05 | < 1e-05 | –
19 | G41A C58U C70G | < 1e-05 | < 1e-05 | –
20 | A42U A53U G59C G62C | < 1e-05 | < 1e-05 | –
21 | G35C G38A | < 1e-05 | < 1e-05 | –
22 | A33C G38C G51C A64C | < 1e-05 | – | < 1e-05

Row | Variant | self-cleavage kobs at 640 uM GlcN6P (glucosamine-6-phosphate [1]) [s⁻¹] | self-cleavage kobs at 2500 uM GlcN6P (glucosamine-6-phosphate [2]) [s⁻¹] | self-cleavage kobs at 10000 uM GlcN6P (glucosamine-6-phosphate [3]) [s⁻¹]
23 | G41A G44U C70A | < 1e-05 | – | –
24 | G38A G59C G62U | < 1e-05 | – | –
25 | A36U A48C C67G | < 1e-05 | < 1e-05 | –
26 | A39U G40U C67A | 0.000118 ± 2.9e-05 | 0.000561 ± 0.00019 | –
27 | G41A G51C A64C | < 1e-05 | – | –
28 | A39U G63C C71G | < 1e-05 | < 1e-05 | –
29 | U46G U55G U69G | 0.000454 ± 0.00015 | 6.16e-05 ± 1.8e-05 | –
30 | C34A U49C C58A | < 1e-05 | – | –
31 | G35A U54C A64C | < 1e-05 | – | –
32 | G40U G59C C71U | < 1e-05 | < 1e-05 | –
33 | A42U C70A C71G | < 1e-05 | – | –
34 | A39C A42G G60C | < 1e-05 | < 1e-05 | –
35 | G35U G40C U49C G51A | < 1e-05 | – | –
36 | G35C A39C G43C U56A | < 1e-05 | – | –
37 | G44U U47C A48C U69G | < 1e-05 | < 1e-05 | –
38 | A42C G43C C70U | < 1e-05 | – | –
39 | A36C C70G | 0.000124 ± 2.1e-05 | – | –
40 | G38U U56G C70A | 0.000333 ± 0.00015 | – | –
41 | G37U G51A G66C | < 1e-05 | – | –
42 | C34U A53U C70G | 0.000145 ± 4.1e-05 | – | –
43 | A33U U54A G60C | < 1e-05 | < 1e-05 | –
44 | G40U U49A | < 1e-05 | < 1e-05 | < 1e-05

Row | Variant | self-cleavage kobs at 640 uM GlcN6P (glucosamine-6-phosphate [1]) [s⁻¹] | self-cleavage kobs at 2500 uM GlcN6P (glucosamine-6-phosphate [2]) [s⁻¹] | self-cleavage kobs at 10000 uM GlcN6P (glucosamine-6-phosphate [3]) [s⁻¹]
45 | A36U A48U G60U C68A | < 1e-05 | < 1e-05 | –
46 | A33G A48C C68U | < 1e-05 | – | –
47 | C34U C58G U65G | < 1e-05 | – | –
48 | A33G G60C C68G | < 1e-05 | – | –
49 | U47C C50A U69G | 5.61e-05 ± 2.5e-05 | 9.43e-05 ± 2.6e-05 | –
50 | A33U U57G C68G | 0.000105 ± 2.8e-05 | 0.000205 ± 7e-05 | –
51 | A36U U46C U49A C68G | < 1e-05 | – | –
52 | A36C G63A G66A | < 1e-05 | – | –
53 | A36C G38A A53U C68G | 9.97e-05 ± 4.4e-05 | – | –
54 | U45C U47G G51U | < 1e-05 | – | –
55 | G35C G40C G60C | < 1e-05 | – | –
56 | G37C G62U C68U | < 1e-05 | < 1e-05 | –
57 | G40C G41C C68A | < 1e-05 | – | –
58 | G41C G51U U55G | < 1e-05 | < 1e-05 | –
59 | A33U U55C C70U | < 1e-05 | – | –
60 | A33G A36U C70G | 0.000157 ± 5.3e-05 | – | –
61 | A39G U49A C68U | < 1e-05 | – | –
62 | A42C A53C G60A | < 1e-05 | < 1e-05 | –
63 | G41C U46G U54C C70G | 0.00305 ± 0.00089 | 0.00908 ± 0.0027 | –
64 | G38U A52C A53C C68A C71U | 0.000617 ± 0.00024 | – | –
65 | G41C U45C C50U | < 1e-05 | < 1e-05 | –
66 | C34U A39U | < 1e-05 | < 1e-05 | < 1e-05
